Columns and labels:
human NOP receptor = human NOP receptor (Homo sapiens, UniProt P41146); assay: Calcium mobilization in CHO cells expressing human NOP receptor and Gαqi5; assay type: cell-based; conditions: inactive = inactive up to 1 μM
Protocol: Cells were maintained in culture medium consisting of Dulbecco's MEM/HAM'S F-12 (50/50) supplemented with 10% foetal calf serum, penicillin (100 IU/ml), streptomycin (100 μg/ml), fungizone (2.5 μg/ml), geneticin (G418; 200 μg/ml) and hygromycin B ([…]). Cell cultures were kept at 37° C. in 5% CO2 humidified air. In all cases experimental cultures were free from selection agents (hygromycin B, G418). When confluence was reached (3-4 days), cells were sub-cultured as required using trypsin EDTA and used for experimentation. Cells were seeded at a density of 50,000 cells/well into 96-well black, clear-bottom plates. After 24 hours incubation the cells were loaded with medium supplemented with 2.5 mM probenecid, 3 μM of the calcium sensitive fluorescent dye Fluo-4 AM and 0.01% pluronic acid, for 30 min at 37° C. Afterwards the loading solution was aspirated and 100 μl/well of assay buffer: Hank's Balanced Salt Solution (HBSS) supplemented with 20 mM HEPES, 2.5 mM probenecid and 500 μM Brilliant Black (Aldrich) was added. […] On-line additions were carried out in a volume of 50 μl/well. […]
(§1) Four mice were monitored in parallel. […] Animals locomotion was recorded for 60 min.

MOP receptor = MOP receptor (Homo sapiens, UniProt P35372); assay: Calcium mobilization in CHO cells expressing MOP receptor and Gαqi5; assay type: cell-based; conditions: inactive = inactive up to 1 μM
MOP receptor, sequence (P35372 whole entry): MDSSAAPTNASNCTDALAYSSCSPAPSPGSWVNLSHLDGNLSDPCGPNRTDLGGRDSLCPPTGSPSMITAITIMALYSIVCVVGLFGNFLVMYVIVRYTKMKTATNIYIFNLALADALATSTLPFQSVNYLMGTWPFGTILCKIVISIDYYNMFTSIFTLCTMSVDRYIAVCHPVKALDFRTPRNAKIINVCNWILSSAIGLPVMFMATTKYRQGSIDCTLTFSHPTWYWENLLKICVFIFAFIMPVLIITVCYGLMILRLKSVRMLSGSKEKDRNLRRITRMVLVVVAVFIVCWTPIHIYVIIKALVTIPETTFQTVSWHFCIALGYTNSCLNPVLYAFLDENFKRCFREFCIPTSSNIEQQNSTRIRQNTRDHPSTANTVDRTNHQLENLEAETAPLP
Protocol: Cell cultures were kept at 37° C. in 5% CO2 humidified air. In all cases experimental cultures were free from selection agents (hygromycin B, G418). When confluence was reached (3-4 days), cells were sub-cultured as required using trypsin EDTA and used for experimentation. Cells were seeded at a density of 50,000 cells/well into 96-well black, clear-bottom plates. After 24 hours incubation the cells were loaded with medium supplemented with 2.5 mM probenecid, 3 μM of the calcium sensitive fluorescent dye Fluo-4 AM and 0.01% pluronic acid, for 30 min at 37° C. Afterwards the loading solution was aspirated and 100 μl/well of assay buffer: Hank's Balanced Salt Solution (HBSS) supplemented with 20 mM HEPES, 2.5 mM probenecid and 500 μM Brilliant Black (Aldrich) was added. […] On-line additions were carried out in a volume of 50 μl/well. To facilitate drug diffusion into the wells in antagonist type experiments, the present studies were performed at 37° C. and three cycles of mixing (25 μl from each well moved up and down 3 times) were performed immediately after antagonist injection to the wells.
as §1

[1] = test system: electrically stimulated mouse vas deferens; assay: Electrically stimulated mouse vas deferens
Protocol: The bath temperature was set at 33° C. Tissues were continuously stimulated through two platinum ring electrodes with supramaximal rectangular pulses of 1 ms duration and 0.05 Hz frequency. A resting tension of 0.3 g was applied to the vas deferens.
assuming a slope value equal to unity, where CR indicate the ratio between agonist potency in the presence and absence of antagonist.

[2] = test system: vas deferens tissues taken from NOP(+/+) mice; assay: Electrically stimulated vas deferens from NOP(+/+) mice; design: species or system mouse
Protocol: The bath temperature was set at 33° C. Tissues were continuously stimulated through two platinum ring electrodes with supramaximal rectangular pulses of 1 ms duration and 0.05 Hz frequency. A resting tension of 0.3 g was applied to the vas deferens. […] Following an equilibration period of 60 min, the contractions induced by electrical field stimulation were stable.

[3] = test system: vas deferens tissues taken from NOP(−/−) mice; assay: Electrically stimulated vas deferens from NOP(−/−) mice; design: species or system mouse; conditions: CL95% in brackets
Protocol: The mouse vas deferens were prepared as previously described (Calto et al., Eur J Pharmacol. 311, (1996) R3-5). Tissues were suspended in 5 ml organ baths containing heated Krebs solution (composition in mM: NaCl 118.5, KCl 4.7, KH2PO4 1.2, NaHCO3 25, glucose 10 and CaCl2 2.5) oxygenated with 95% O2 and 5% CO2. The bath temperature was set at 33° C. Tissues were continuously stimulated through two platinum ring electrodes with supramaximal rectangular pulses of 1 ms duration and 0.05 Hz frequency. A resting tension of 0.3 g was applied to the vas deferens. The electrically evoked contractions (twitches) were measured isotonically with a strain gauge transducer (Basile 7006, UgoBasile s.r.l., Varese, Italy) and recorded with the PC based acquisition system Power Lab (ADInstrument, USA). Following an equilibration period of 60 min, the contractions induced by electrical field stimulation were stable.

[4] = test system: spontaneous locomotor activity; assay: Mouse locomotor activity, CD-1 mice, i.c.v.; assay type: in vivo
[5] = test system: locomotor activity of NOP(+/+) mice; assay: Locomotor activity of NOP(+/+) mice; conditions: 0.25 nmole, 120 min post injection
Protocol: (§2) Mice were positioned in a square plastic cage (40×40 cm), one mouse per cage. Four mice were monitored in parallel. Mouse horizontal activity was monitored by a camera while vertical activity was measured by an infrared beam array. Animals locomotion was recorded for 60 min.
(§3) In vivo data are expressed as mean±sem of n animals. Data were analysed using one-way analysis of variance (ANOVA) followed by Dunnett post hoc test. Differences were considered statistically significant when p<0.05.

[6] = test system: locomotor activity of NOP(−/−) mice; assay: Locomotor activity of NOP(−/−) mice; conditions: 0.25 nmole, 120 min post injection
Protocol: as §2, §3

human NOP receptor, sequence (P41146 whole entry): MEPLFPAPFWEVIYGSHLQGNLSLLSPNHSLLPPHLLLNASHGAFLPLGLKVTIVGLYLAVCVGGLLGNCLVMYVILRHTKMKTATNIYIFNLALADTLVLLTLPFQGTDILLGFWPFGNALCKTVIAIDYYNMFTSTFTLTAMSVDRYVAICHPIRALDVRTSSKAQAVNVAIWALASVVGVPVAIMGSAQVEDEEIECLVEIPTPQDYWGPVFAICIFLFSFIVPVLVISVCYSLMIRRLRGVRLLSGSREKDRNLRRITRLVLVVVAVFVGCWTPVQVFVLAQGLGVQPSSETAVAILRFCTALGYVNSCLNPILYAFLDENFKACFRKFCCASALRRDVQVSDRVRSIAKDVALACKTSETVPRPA

B1: PWT2-N/OFQ: supramolecular aggregate of maleimido core PWT2 with nociceptin/orphanin FQ, made from PWT2 and [Cys18]N/OFQ-NH2 by thiol-Michael addition (conjugate)
peptide: SCQRDCLTCQEKLHPALDSFDLEVCILECEEKVFPSPLWTPCTKVMARSSWQLSPAAPEHVAAALYQPRASEMQHLRRMPRVRSLFQEQEEPEPGMEEAGEMEQKQLQKRFGGFTGARKSARKLANQKRFSEFMRQYLVLSMQSSQRRRTLHQNGNVC
pEC50 (CL95%) (human NOP receptor): 8.83 | pEC50 (MOP receptor): inactive | reversal of inhibitory effect after washing the tissue [1]: rather resistant to washing | Emax ([1]; % inhibition of control twitch): 93 ± 2% | onset of inhibitory effect ([1]; after adding to the bath): slow inhibitory effect | pEC50 ([1]; inhibition of twitch response, CD1 mouse vas deferens, CL95% in brackets): 7.78 (7.57-7.99) | time for inhibitory effect to reach the plateau ([1]; mouse vas deferens): 10 min | pEC50 ([2]; CL95% in brackets): 7.92 | Emax ([2]; maximal inhibition of electrically induced contractions): 91 ± 2% | pEC50 [3]: 5.85 (5.55-6.15) | locomotor activity in overnight experiment ([4]; i.c.v. at 11 AM, N/OFQ 10 nmole, PWT2-N/OFQ 0.25 nmole, measured 3 PM to 9 AM): statistically significant reduced distance travelled and rearing behaviour associate with increased immobility time for the whole time course of the experiment | acute effects on spontaneous locomotor activity ([4]; i.c.v., CD-1 mice, recorded for 120 min): slow onset of action and prolonged effects compared to the natural peptide | Distance travelled (m) [5]: 104 ± 19 m | Immobility time [5]: 3305 ± 390 s | Rearings (n) [5]: 96 ± 19 n | Distance travelled (m) [6]: 203 ± 26 m | Immobility time [6]: 2372 ± 525 s | Rearings (n) [6]: 625 ± 181 n

From patent US9962447B2, “Supramolecular aggregates comprising maleimido cores” (UFPEPTIDES S.R.L., priority 2013, dated 2018)
